Results as given in paper doi:10.1101/2021.04.14.439868.

Key:
LuxR = target: T1, LuxR (Vibrio campbellii BB120, UniProt P21308 1-205); experiment: EMSA
T1 sequence: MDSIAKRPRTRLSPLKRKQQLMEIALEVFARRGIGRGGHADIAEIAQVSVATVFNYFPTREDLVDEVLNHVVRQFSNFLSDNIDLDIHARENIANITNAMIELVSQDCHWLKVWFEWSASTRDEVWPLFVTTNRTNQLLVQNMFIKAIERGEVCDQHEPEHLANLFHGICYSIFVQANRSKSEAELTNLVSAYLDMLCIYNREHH

SmcR = target: T2, SmcR (Vibrio vulnificus ATCC 27562, UniProt Q9L8G8 1-205); experiment: EMSA
T2 sequence: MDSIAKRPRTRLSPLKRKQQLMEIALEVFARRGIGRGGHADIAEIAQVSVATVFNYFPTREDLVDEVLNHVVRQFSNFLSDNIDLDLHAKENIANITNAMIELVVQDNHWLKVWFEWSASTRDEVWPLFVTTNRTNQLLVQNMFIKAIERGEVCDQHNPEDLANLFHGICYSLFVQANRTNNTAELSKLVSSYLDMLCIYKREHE

| Binder | binding result (LuxR) | binding result (SmcR) |
| --- | --- | --- |
| luxC promoter site B (JDN54/JDN55) (dsDNA) DNA 1: TTACTTATTTATAGTGTTACAAATAACATTA DNA 2: TAATGTTATTTGTAACACTATAAATAAGTAA | binds |  |
| vvpE promoter (AB324/AB325) (dsDNA) DNA 1: ATAAATCAAATTTGTAACTTTATTTCTGAGATGACTGTCCCATTTATCTTATTGATAAATCTGCGTAAAAAAGAAAAAGCACAATTTTATTACTAGTGTTT DNA 2: AAACACTAGTAATAAAATTGTGCTTTTTCTTTTTTACGCAGATTTATCAATAAGATAAATGGGACAGTCATCTCAGAAATAAAGTTACAAATTTGATTTAT |  | binds |
